For data set [1] the following is noted: sagittal sinus, 0.068 μmol/kg.
The subject of the next data set is glioblastoma GL261. To be noted: mouse, in vivo.
For data set [2], the system named is blood-brain barrier (BBB). The note with it: dose 8×. As to the method:
AD-Mouse models: 6-8 month old […] (B6.Cg-Tg (APPswe/PS1ΔE9) 85Dbo/J hemizygous) mice were obtained from Jackson Laboratories. Mouse maintenance and experimental procedures followed the guidelines established by the Cedars Sinai Institutional Animal Care and Use Committee (IACUC Protocol #7416). Three to four mice of each sex were used for each experiment. Nanoconjugates were dissolved freshly in PBS (pH 7.4) prior to each experiment and injected intravenously (i.v.) into the lateral tail vein. […] Mice were anesthetized with isoflurane beforehand and their tails were briefly warmed to facilitate injections. The drug injection volume was kept constant at 150 μL. After each injection, mice were promptly returned to their cages. Brains were collected and preserved in OTC for immunostaining.
The brains were harvested and a 14 μm thick slices which were fixed and stained with DAPI to envision the nuclei
A comparison with normal brain was beneficial for understanding of the development of Alzheimer's disease.

Data set [3] has as its system blood-brain barrier (BBB). The data set can be described thus: BBB penetration: nanoconjugate fluorescence in brain parenchyma of healthy mice by optical imaging. As to the method: Healthy Mice: Eight to nine-week-old BALB/C and BLACK-6 mice were obtained from Charles River Laboratories (Wilmington, Mass., USA). […] Three to four mice of each sex were used for each experiment.
Nanoconjugates were dissolved freshly in PBS (pH 7.4) prior to each experiment and injected intravenously (i.v.) into the lateral tail vein. Mice were anesthetized with isoflurane beforehand, and their tails were briefly warmed to facilitate injections. […] The drug injection volume was kept constant at 150 μL. After each injection, mice were promptly returned to their cages. Eight to nine-week-old B116 mice were obtained from Charles River Laboratories (Wilmington, Mass., USA). […] Three to four mice of each sex were used for each experiment. Nanoconjugates were dissolved freshly in PBS (pH 7.4) prior to each experiment and injected intravenously (i.v.) into the lateral tail vein. […] All mice were euthanized 2 h post drug injection. Mice were anesthetized with isoflurane beforehand and their tails were briefly warmed to facilitate injections. All conjugates were administered as a single dose, as indicated for each experiment (4× or 8×). […]
In this analysis, 20×10 μm^2 or 10×10 μm^2 sized regions of interest (ROI) were randomly overlaid on images showing the vasculature, explicitly avoiding blood vessels. For FIG. 30A, the ROI was drawn around all Neun stained nucleuses detected. Intensity measurements and positions were then obtained for each ROI after it was separately overlaid on the image showing nanoconjugate fluorescence.
Fluorescence measurements were thus based on the anatomy of the cerebral vasculature rather than nanoconjugate labeling of whole sections or extracts of brain parenchyma and were therefore unbiased and intentionally avoiding the nanoconjugate load in the cerebral vasculature.
All nanoconjugate fluorescence measurements in brain parenchyma (e.g., FIGS. 14B-14C (1-3); 16B (1-3); 19B-19E; 20C-20D; and FIG. 22B) are presented as relative fluorescence intensities. […] Relative fluorescence measurements thus represent total fluorescence minus representative autofluorescence. […]

The conditions of data set [4]: comparison, Israel et al., 2019; cited from earlier work.
A further data set has as its system neurons and astroglia. The note with it: mouse, in vivo. As to the method:
Neuronal and glial counterstaining: In FIGS. 27A-27C, brain tissue from drug-injected mice was counterstained to determine if our nanoconjugates are taken up by neurons or glia. Cryosections ([…]) were air-dried for 10 min, fixed with 2% paraformaldehyde for 5 min, and then rinsed three times with PBS. […] The antibodies anti-Neun (Abcam, Cambridge, Mass., USA; AB104225) and anti-GFAP (Neuromics, Edina, Minn., USA; C1122102) were then diluted 1:500 in PBS-T and tissue sections incubated simultaneously with antibody solutions overnight at 4° C. in a humid chamber. Tissue sections were then washed five times with PBS-T and incubated in appropriate secondary antibody diluted 1:250 in PBS-T, for 2-4 h. After five washes in PBS at room temperature, sections were mounted between coverslips in Fluoromount-G with DAPI.
To this end, after systemic injection of our D-conjugates we counterstained brain tissue sections of hippocampus and cortex with anti-Neun to label neurons, and with anti-GFAP to label astroglia (FIGS. 27A-27C) and inspected the stained sections for red fluorescent particulates. […] Positive neurons and glia cells were counted after systemic injection of conjugates containing D1, D3, AC189 peptides, and of a control PBS (FIGS. 27A-27C).

Data set [5] relates to blood-brain barrier (BBB). To be noted: Israel et al., 2019; cited from earlier work.

As to PMLA/LLL/AP2/rhodamine [P/LLL/AP2], in data set [1], the “optical half-life (optically measured serum clearance)” value was 1.22 h. Also, the “increase in tumor selectivity with the increase of the dose” value in the data set with glioblastoma GL261 is 2.4 fold. Also, in data set [2], the “fluorescence intensity in AD brain” value was 10 units. Besides, in data set [3] (0.068 μmol/kg i.v.), the “time at which nanoconjugate fluorescence could not be distinguished from background of brain parenchyma” value was found to be 240 min and the “time of maximal conjugate fluorescence in cortex parenchyma” value stood at 30 min. Besides, in data set [3] (dose 8×), the “fluorescence intensity in normal brain” value came to 30 units. Further, the half-life in blood in data set [4] is 1.28 h. Moreover, the “cell association in GFAP and NEUN staining” value in the data set with neurons and astroglia is “no cell association”. In data set [5], the “half-life of first decline in brain parenchyma” value was more than 2 h and the “time independent plateau in parenchyma” value is listed as more than 240 min.

The record behind these values is US20200206304A1, “METHODS AND COMPOSITIONS FOR EFFICIENT DELIVERY THROUGH MULTIPLE BIO BARRIERS” (Cedars-Sinai Medical Center, priority 2017, published 2020).
